Data set [1] concerns the target Recombinant SSL1 of S. aureus ocular isolate 295.236 (allele type 2) (Staphylococcus aureus isolate 295.236).
The target of data set [2] is Recombinant SSL1 of S. aureus strain MW2 (allele type 1) (Staphylococcus aureus strain MW2).
Data set [3] addresses Recombinant SSL1 of S. aureus strain Newman (allele type 3) with a C-terminal 6-His tag (Staphylococcus aureus strain Newman).
Data set [4] concerns the molecule itself. The data set can be described thus: gelatin zymography with SDS compared with reduced, denaturing SDS-PAGE.

For orientation: stoichiometry N means the number of molecules, sites or subunits per partner or assembly. Consider “Recombinant SSL1 of S. aureus ocular isolate 295.236 (allele type 2) (from UniProt A0A0H3KAV3 31-226) (natural protein)”, for which, in data set [1], the stoichiometry N was 2.

Turning to “Recombinant SSL1 of S. aureus strain MW2 (allele type 1) (from UniProt A0A0H3KAV3 31-226) (natural protein)”, the stoichiometry N in data set [2] is 2.

On to “Recombinant SSL1 of S. aureus strain Newman (allele type 3) with a C-terminal 6-His tag (from UniProt A0A0H3KAV3 31-226) (natural protein)”, for which the stoichiometry N in data set [3] worked out at 2.

B1: Staphylococcus aureus superantigen-like protein SSL1 of strain Newman, native secreted protein (natural protein)
chain: KAEVKQQSESELKHYYNKPILERKNVTGFKYTDEGKHYLEVTVGQQHSRITLLGSDKDKFKDGENSNIDVFILREGDSRQATNYSIGGVTKSNSVQYIDYINTPILEIKKDNEDVLKDFYYISKEDISLKELDYRLRERAIKQHGLYSNGLKQGQITITMNDGTTHTIDLSQKLEKERMGESIDGTKINKILVEMK
notes: also called the toxin; the protease
For the molecule B1, the “stoichiometry N” value in data set [4] amounted to 2.

Source of the values: publication PMC6471365 (Pathogens, 2019).
